Experimental findings from the supplement of paper PMC10724198 are described below.

± gives the standard deviation of the averaged measurements.
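Also: PSI is a weighted mean of sequencing reads over stability bins, variants kept only with over 10 reads, mCherry proximal and sfGFP distal, peptide attached via GGGS linker.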

For this series, the system named is Saccharomyces cerevisiae. The series is described as follows: protein stability index of tFT-peptide fusion (C-terminal peptide) (PSI (0-1 scale)); higher = more stable (slower turnover). The conditions noted are these: genetic background: wild type; temperature: 30 C.
Sequence SRYRPTGAHYGH showed a protein stability index of 0.714 ± 0.064.

SSAGEVAFVAGT: the protein stability index came out at 0.689 ± 0.089.

For SSAPPPPPRPLP, the protein stability index is 0.588 ± 0.052.

SSFPPAPHAPHD registered a protein stability index of 0.739 ± 0.03.

Consider SSFRASVRSRKT, for which the protein stability index worked out at 0.692 ± 0.022.

SSFSAPPMPRSF had a protein stability index of 0.653 ± 0.028.

In the case of SSGNSVDCFGHQ, the protein stability index amounted to 0.6959 ± 0.0057.

Consider SSHLILTVAPSA, for which the protein stability index was determined as 0.6515 ± 0.0045.

The sequence SSHPMNQVIKDR returned a protein stability index of 0.659 ± 0.13.

Take SSKGGWSGGGSV: the protein stability index worked out at 0.71 ± 0.025.

In turn, SSLAPLLYLDTP showed a protein stability index of 0.661 ± 0.084.

The sequence SSLRPSRPPPAS registered a protein stability index of 0.6988 ± 0.0057.

SSLSPLLYRPLF registered a protein stability index of 0.742 ± 0.047.

Take SSLSPTPPPSFP: the protein stability index was determined as 0.84 ± 0.2.

Regarding SSPAPPPLLLPS, the protein stability index came out at 0.7047 ± 0.00088.

SSPIFPDPSHVS yielded a protein stability index of 0.6058 ± 0.0054.

SSPLSSPLSTAP returned a protein stability index of 0.622 ± 0.018.

Sequence SSPLVHWFSYLS had a protein stability index of 0.682 ± 0.023.

SSPPPHPPPVPR showed a protein stability index of 0.688 ± 0.1.

Take SSPPRPLPPHHT: the protein stability index was 0.705 ± 0.059.

On to SSPSFPSPLPPY, for which the protein stability index is 0.701 ± 0.074.

Regarding SSPSYVPVSYSQ, the protein stability index worked out at 0.708 ± 0.066.

In the case of SSRAPSLPPPPP, the protein stability index stood at 0.674 ± 0.025.

SSRCLPPFPLCP: the protein stability index is 0.736 ± 0.11.

Turning to SSRLALVLLPPG, the protein stability index was determined as 0.649 ± 0.042.

SSRRYSGLSFTS displayed a protein stability index of 0.702 ± 0.015.

Take SSRVLFRVSVLR: the protein stability index was 0.646 ± 0.09.

SSSFFLFPVGFF: the protein stability index worked out at 0.784 ± 0.14.

In the case of SSSHRPTAPSSR, the protein stability index was determined as 0.669 ± 0.05.

Consider SSSPLPPPSPPP, for which the protein stability index amounted to 0.673 ± 0.032.

SSSPTPLPRSLP showed a protein stability index of 0.671 ± 0.024.

Take SSSTPPVHVPIS: the protein stability index amounted to 0.647 ± 0.083.

Consider SSSVSYFLHYCI, for which the protein stability index is 0.606 ± 0.038.

The sequence SSSWILCRFGRS yielded a protein stability index of 0.664 ± 0.041.

SSTCSPPRLSQS displayed a protein stability index of 0.679 ± 0.046.

SSVEREEEGGGG yielded a protein stability index of 0.676 ± 0.11.

SSVFRSYTSVLS registered a protein stability index of 0.686 ± 0.076.

For SSVGLRTRRTAR, the protein stability index is 0.638 ± 0.081.

In turn, SSVILPLRRWPP displayed a protein stability index of 0.648 ± 0.094.

SSVVPITLPAFL displayed a protein stability index of 0.707 ± 0.019.

For the sequence STALVFSDSALL, the protein stability index is 0.694 ± 0.061.

Sequence STDRPLRLHPGG registered a protein stability index of 0.622 ± 0.041.

STEFCRIIYRGP returned a protein stability index of 0.681 ± 0.023.

STICQRSTSGKG showed a protein stability index of 0.657 ± 0.031.

For STLAPRVYLRLR, the protein stability index worked out at 0.676 ± 0.032.

In the case of STPLLLSPPLFC, the protein stability index was 0.649 ± 0.04.

Turning to STPSMGSMTRLE, the protein stability index stood at 0.731 ± 0.041.

In turn, STPSPPPAPRSP yielded a protein stability index of 0.708 ± 0.015.

Regarding STPVEATQDVAR, the protein stability index came to 0.724 ± 0.0083.

On to STQGAFHFLVSL, for which the protein stability index was found to be 0.679 ± 0.015.

STRFVRNEFGVS displayed a protein stability index of 0.665 ± 0.035.

In turn, STVFAICQVLPI returned a protein stability index of 0.6592 ± 0.0021.

In turn, STVGSKLCWESS yielded a protein stability index of 0.682 ± 0.072.

Sequence SVCEWSRVGIRL came in with a protein stability index of 0.6476 ± 0.0056.

Sequence SVETVSSSSVAD registered a protein stability index of 0.656 ± 0.057.

On to SVFERDWTGGEV, for which the protein stability index was determined as 0.7184 ± 0.00085.

For SVGFVGVGCRGR, the protein stability index is 0.707 ± 0.025.

Take SVGGVGGAVGGG: the protein stability index came out at 0.663 ± 0.014.

Sequence SVGLTGHGTRGV showed a protein stability index of 0.571.

Consider SVGPWVSSGGFR, for which the protein stability index was 0.6664 ± 0.0048.

The sequence SVHAMDCNGYAN yielded a protein stability index of 0.643 ± 0.013.

SVLRWAVLGQTR: the protein stability index is 0.728 ± 0.18.

On to SVLSVAIRAPTQ, for which the protein stability index came out at 0.691 ± 0.093.

Take SVLVLPVLFLED: the protein stability index is 0.6884 ± 0.004.
